B1: suPAR_DB01_G09 (scFv, V domains shown)
VH: QVQLVQSGAEVKKPGASVKVSCKASGHTLNSYYMHWVRQAPGQGLEWMGWIDPENGNTIYAQKFQGRVTMTRDTSTSTVYMELSSLRSEDTAVYYCARGYDVDWFVYWGQGTLVTVSS
VL: DIQMTQSPSSLSASVGDRVTITCSARQSVSYMYWYQQKPGKAPKLLIYRTSNLASGVPSRFSGSGSGTDFTLTISSLQPEDFATYYCQQYHSYPPTFGGGTKVEIK
notes: Screened as scFv
B2: suPAR_DB01_H01 (scFv, V domains shown)
VH: QVQLVQSGAEVKKPGASVKVSCKASGDTFTSYYMHWVRQAPGQGLEWMGWIDPENGNTIYDQKFQGRVTMTRDTSTSTVYMELSSLRSEDTAVYYCARGYDVDWFVYWGQGTLVTVSS
VL: DIQMTQSPSSLSASVGDRVTITCSARSSVSYMYWYQQKPGKAPKLLIYRTSNLASGVPSRFSGSGSGTDFTLTISSLQPEDFATYYCQQYHSYPPTFGGGTKVEIK
notes: Screened as scFv
B3: suPAR_DB02_A07 (scFv, V domains shown)
VH: QVQLVQSGAEVKKPGASVKVSCKASGYNIKDYYIHWVRQAPGQGLEWMGWISPDSGVTNYAQKFQGRVTMTRDTSTSTVYMELSSLRSEDTAVYYCARGYDVDWFVYWGQGTLVTVSS
VL: DIQMTQSPSSLSASVGDRVTITCSARQSVSYMYWYQQKPGKAPKLLIYRTSNLASGVPSRFSGSGSGTDFTLTISSLQPEDFATYYCQQYHSYPPTFGGGTKVEIK
notes: Screened as scFv
B4: suPAR_DB02_A05 (scFv, V domains shown)
VH: QVQLVQSGAEVKKPGASVKVSCKASGDTFTSYYMHWVRQAPGQGLEWMGWIDPENGNTIYAQKFQGRVTMTRDTSTSTVYMELSSLRSEDTAVYYCARGYDVDWFVYWGQGTLVTVSS
VL: DIQMTQSPSSLSASVGDRVTITCSARQSVSYMYWYQQKPGKAPKLLIYRTSNLASGVPSRFSGSGSGTDFTLTISSLQPEDFATYYCQQYHSYPPTFGGGTKVEIK
notes: Screened as scFv
B5: suPAR_DB01_G10 (scFv, V domains shown)
VH: QVQLVQSGAEVKKPGASVKVSCKASGYTFTNYYMHWVRQAPGQGLEWMGWIDHEGGNTSYAQKFQGRVTMTRDTSTSTVYMELSSLRSEDTAVYYCARGYDVDWFVYWGQGTLVTVSS
VL: DIQMTQSPSSLSASVGDRVTITCSARSSVSYMYWYQQKPGKAPKLLIYRTSNLASGVPSRFSGSGSGTDFTLTISSLQPEDFATYYCQQYHSYPPTFGGGTKVEIK
notes: Screened as scFv
B6: suPAR_DB02_A10 (scFv, V domains shown)
VH: QVQLVQSGAEVKKPGASVKVSCKASGYTFTGNYMHWVRQAPGQGLEWMGWIDHENGNTIYDQKFQGRVTMTRDTSTSTVYMELSSLRSEDTAVYYCARGSDVDWFVYWGQGTLVTVSS
VL: DIQMTQSPSSLSASVGDRVTITCSARSSVSYMYWYQQKPGKAPKLLIYRTSNLASGVPSRFSGSGSGTDFTLTISSLQPEDFATYYCQQYHSYPPTFGGGTKVEIK
notes: Screened as scFv
B7: suPAR_DB02_A12 (scFv, V domains shown)
VH: QVQLVQSGAEVKKPGASVKVSCKASGYTFTNYYMHWVRQAPGQGLEWMGWIDHENGSTIYAQKFQGRVTMTRDTSTSTVYMELSSLRSEDTAVYYCARGYDMDWFVYWGQGTLVTVSS
VL: DIQMTQSPSSLSASVGDRVTITCSARSSVSYMYWYQQKPGKAPKLLIYRTSNLASGVPSRFSGSGSGTDFTLTISSLQPEDFATYYCQQYHSYPPTFGGGTKVEIK
notes: Screened as scFv
B8: suPAR_DB01_H10 (scFv, V domains shown)
VH: QVQLVQSGAEVKKPGASVKVSCKASGYTFTNYYMHWVRQAPGQGLEWMGWIDHENGSTIYAQKFQGRVTMTRDTSTSTVYMELSSLRSEDTAVYYCARGYDVDWFVYWGQGTLVTVSS
VL: DIQMTQSPSSLSASVGDRVTITCSARQSVSYMYWYQQKPGKAPKLLIYRTSNLASGVPSRFSGSGSGTDFTLTISSLQPEDFATYYCQQYHSYPPTFGGGTKVEIK
notes: Screened as scFv
B9: suPAR_DB01_H05 (scFv, V domains shown)
VH: QVQLVQSGAEVKKPGASVKVSCKASGYTFTGNYVHWVRQAPGQGLEWMGWIDHENGNTIYDQKFQGRVTMTRDTSTSTVYMELSSLRSEDTAVYYCARGYDVDWFVYWGQGTLVTVSS
VL: DIQMTQSPSSLSASVGDRVTITCSARSSVSYMYWYQQKPGKAPKLLIYRTSNLASGVPSRFSGSGSGTDFTLTISSLQPEDFATYYCQQYHSYPPTFGGGTKVEIK
notes: Screened as scFv
B10: suPAR_DB01_H06 (scFv, V domains shown)
VH: QVQLVQSGAEVKKPGASVKVSCKASGFNIKDYYMHWVRQAPGQGLEWMGWIDPENGNTIYDQKFQGRVTMTRDTSTSTVYMELSSLRSEDTAVYYCARGYDVDWFVYWGQGTLVTVSS
VL: DIQMTQSPSSLSASVGDRVTITCSARQSISYMYWYQQKPGKAPKLLIYRTSNLASGVPSRFSGSGSGTDFTLTISSLQPEDFATYYCQQYHSYPPTFGGGTKVEIK
notes: Screened as scFv
B11: suPAR_DB01_H04 (scFv, V domains shown)
VH: QVQLVQSGAEVKKPGASVKVSCKASGYTFTNYYMHWVRQAPGQGLEWMGWIDPNSGGTNYAQKFQGRVTMTRDTSTSTVYMELSSLRSEDTAVYYCARGYDVDWFVYWGQGTLVTVSS
VL: DIQMTQSPSSLSASVGDRVTITCSARSSVSYMYWYQQKPGKAPKLLIYRTSNLASGVPSRFSGSGSGTDFTLTISSLQPEDFATYYCQQYHSYPPTFGGGTKVEIK
notes: Screened as scFv
B12: suPAR_DB02_B03 (scFv, V domains shown)
VH: QVQLVQSGAEVKKPGASVKVSCKASGYTFIGNYIHWVRQAPGQGLEWMGWIDHENGSTIYDQKFQGRVTMTRDTSTSTVYMELSSLRSEDTAVYYCARGSDVDWFVYWGQGTLVTVSS
VL: DIQMTQSPSSLSASVGDRVTITCSARSSVSYMYWYQQKPGKAPKLLIYRTSNLASGVPSRFSGSGSGTDFTLTISSLQPEDFATYYCQQYHSYPPTFGGGTKVEIK
notes: Screened as scFv
B13: suPAR_DB02_A08 (scFv, V domains shown)
VH: QVQLVQSGAEVKKPGASVKVSCKASGYTFTTYYMHWVRQAPGQGLEWMGWIDPENGNTIYAQKFQGRVTMTRDTSTSTVYMELSSLRSEDTAVYYCARGYDVDWFVYWGQGTLVTVSS
VL: DIQMTQSPSSLSASVGDRVTITCSARSSVSYMYWYQQKPGKAPKLLIYRTSNLASGVPSRFSGSGSGTDFTLTISSLQPEDFATYYCQQYHSYPPTFGGGTKVEIK
notes: Screened as scFv
B14: suPAR_DB02_A04 (scFv, V domains shown)
VH: QVQLVQSGAEVKKPGASVKVSCKASGYTFTGYYVHWVRQAPGQGLEWMGWIDHENGNTIYDQKFQGRVTMTRDTSTSTVYMELSSLRSEDTAVYYCARGYDVDWFVYWGQGTLVTVSS
VL: DIQMTQSPSSLSASVGDRVTITCRASSSVSYMYWYQQKPGKAPKLLIYRTSNLASGVPSRFSGSGSGTDFTLTISSLQPEDFATYYCQQYHSYPPTFGGGTKVEIK
notes: Screened as scFv
B15: suPAR_DB01_H03 (scFv, V domains shown)
VH: QVQLVQSGAEVKKPGASVKVSCKASGDTITNYYMHWVRQAPGQGLEWMGWIDTNSGGTQYAQKFQGRVTMTRDTSTSTVYMELSSLRSEDTAVYYCARGYDVDWFVYWGQGTLVTVSS
VL: DIQMTQSPSSLSASVGDRVTITCSARSSVSYMYWYQQKPGKAPKLLIYRTSNLASGVPSRFSGSGSGTDFTLTISSLQPEDFATYYCQQYHSYPPTFGGGTKVEIK
notes: Screened as scFv
B16: suPAR_DB02_A03 (scFv, V domains shown)
VH: QVQLVQSGAEVKKPGASVKVSCKASGYTFTDYYIHWVRQAPGQGLEWMGWIDPENGNTIYAQKFQGRVTMTRDTSTSTVYMELSSLRSEDTAVYYCARGYDVDWFVYWGQGTLVTVSS
VL: DIQMTQSPSSLSASVGDRVTITCSARSSVSYMYWYQQKPGKAPKLLIYRTSNLASGVPSRFSGSGSGTDFTLTISSLQPEDFATYYCQQYHSYPPTFGGGTKVEIK
notes: Screened as scFv
B17: suPAR_DB02_A09 (scFv, V domains shown)
VH: QVQLVQSGAEVKKPGASVKVSCKASGYTFTNYYMHWVRQAPGQGLEWMGWIDPEGGSTIYDQKFQGRVTMTRDTSTSTVYMELSSLRSEDTAVYYCARGYDVDWFVYWGQGTLVTVSS
VL: DIQMTQSPSSLSASVGDRVTITCSARQSISYMYWYQQKPGKAPKLLIYRTSNLASGVPSRFSGSGSGTDFTLTISSLQPEDFATYYCQQYHSYPPTFGGGTKVEIK
notes: Screened as scFv
B18: suPAR_DB02_B01 (scFv, V domains shown)
VH: QVQLVQSGAEVKKPGASVKVSCKASGYTFTGHYVHWVRQAPGQGLEWMGWIDHENGNTIYDQKFQGRVTMTRDTSTSTVYMELSSLRSEDTAVYYCARGYDVDWFVYWGQGTLVTVSS
VL: DIQMTQSPSSLSASVGDRVTITCSARQSVSYMYWYQQKPGKAPKLLIYRTSNLASGVPSRFSGSGSGTDFTLTISSLQPEDFATYYCQQYHSYPPTFGGGTKVEIK
notes: Screened as scFv
B19: suPAR_DB01_H07 (scFv, V domains shown)
VH: QVQLVQSGAEVKKPGASVKVSCKASGDTFSNYYMHWVRQAPGQGLEWMGWIDHENGSTIYAQKFQGRVTMTRDTSTSTVYMELSSLRSEDTAVYYCARGYDVDWFVYWGQGTLVTVSS
VL: DIQMTQSPSSLSASVGDRVTITCSARSSVSYMYWYQQKPGKAPKLLIYRTSNLASGVPSRFSGSGSGTDFTLTISSLQPEDFATYYCQQYHSYPPTFGGGTKVEIK
notes: Screened as scFv
B20: suPAR_DB02_A11 (scFv, V domains shown)
VH: QVQLVQSGAEVKKPGASVKVSCKASGGTFSSYYMHWVRQAPGQGLEWMGWIDPSNGNTIYDQKFQGRVTMTRDTSTSTVYMELSSLRSEDTAVYYCARGYDVDWFVYWGQGTLVTVSS
VL: DIQMTQSPSSLSASVGDRVTITCSARQSVSYMYWYQQKPGKAPKLLIYRTSNLASGVPSRFSGSGSGTDFTLTISSLQPEDFATYYCQQYHSYPPTFGGGTKVEIK
notes: Screened as scFv
B21: suPAR_DB01_G12 (scFv, V domains shown)
VH: QVQLVQSGAEVKKPGASVKVSCKASGDTFSNYYMHWVRQAPGQGLEWMGWIDHENGNTIYDQKFQGRVTMTRDTSTSTVYMELSSLRSEDTAVYYCARGYDVDWFVYWGQGTLVTVSS
VL: DIQMTQSPSSLSASVGDRVTITCSARSSISYMYWYQQKPGKAPKLLIYRTSNLASGVPSRFSGSGSGTDFTLTISSLQPEDFATYYCQQYHSYPPTFGGGTKVEIK
notes: Screened as scFv

Legend:
[1] = molecular target: T1, cynomolgus soluble urokinase plasminogen activator receptor (cynomolgus suPAR) (cynomolgus, UniProt Q9GK78 23-303, limits assumed); experiment: BLI (Octet) off-rate screen of scFv
T1 construct: also called cynomolgus uPAR; cynoPLAUR-His
T1 sequence (Q9GK78 23-303 limits assumed): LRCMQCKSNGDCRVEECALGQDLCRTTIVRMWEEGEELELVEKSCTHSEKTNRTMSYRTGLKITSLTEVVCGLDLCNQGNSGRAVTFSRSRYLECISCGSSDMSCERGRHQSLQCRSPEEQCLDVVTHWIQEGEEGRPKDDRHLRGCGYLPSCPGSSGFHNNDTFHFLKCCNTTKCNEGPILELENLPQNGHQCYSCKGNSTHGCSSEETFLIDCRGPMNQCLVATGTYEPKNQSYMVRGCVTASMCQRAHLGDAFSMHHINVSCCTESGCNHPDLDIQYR

[2] = molecular target: T2, human soluble urokinase plasminogen activator receptor (hsuPAR) (human, UniProt Q03405 23-303, limits assumed); experiment: BLI (Octet) off-rate screen of scFv
T2 construct: also called human suPAR; rhuPAR-His
T2 sequence (Q03405 23-303 limits assumed): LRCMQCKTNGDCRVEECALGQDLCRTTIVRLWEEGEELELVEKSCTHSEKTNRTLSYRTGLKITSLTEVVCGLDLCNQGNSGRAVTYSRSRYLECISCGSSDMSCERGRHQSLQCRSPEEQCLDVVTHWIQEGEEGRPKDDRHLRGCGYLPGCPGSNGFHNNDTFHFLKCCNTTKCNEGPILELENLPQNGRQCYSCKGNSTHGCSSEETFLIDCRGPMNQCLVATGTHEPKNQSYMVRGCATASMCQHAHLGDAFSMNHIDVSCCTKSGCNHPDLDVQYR

Row | Binder | koff [1] [s⁻¹] | koff [2] [s⁻¹]
1 | B1 | 0.000347 | 0.00433
2 | B2 | 0.000122 | 0.00454
3 | B3 | 0.000352 | 0.00114
4 | B4 | 0.000151 | 0.00521
5 | B5 | 0.000197 | 0.00343
6 | B6 | 0.00024 | 0.00319
7 | B7 | 2.26e-05 | 0.0017
8 | B8 | 0.000374 | 0.000603
9 | B9 | 0.000432 | 0.00152
10 | B10 | 0.000129 | 0.0052
11 | B11 | 0.000225 | 0.00242
12 | B12 | 0.000424 | 0.00088
13 | B13 | 7.98e-05 | 0.00363
14 | B14 | 0.000521 | 0.00236
15 | B15 | 0.000677 | 0.001
16 | B16 | 0.000341 | 0.00198
17 | B17 | 0.000484 | 0.00613
18 | B18 | 0.000363 | 0.00253
19 | B19 | 0.000219 | 0.00138
20 | B20 | 0.000232 | 0.00447
21 | B21 | 0.000247 | 0.00466
